Test results published in the supplement of paper PMC10126150.
± gives the standard deviation of the averaged measurements.

test system: ATP; assay: switch fluorescence ratio, 500 uM ATP over buffer (Cy3 cluster intensity, sum of 5 cycles each) (fold (ratio)); higher = stronger signal-on switching upon ATP binding; sequences stand for … in TCGTCGGCAGCGTCAGATGTGTATAAGAGACAGTTTTTTTTTTTTTTTTTTTTTTTTT…TC; settings: aptamer strand: ATP DNA aptamer (quencher-CACCTGGGGGAGTATTGCGGAGGAAGG + anchor), 100 nM annealed; ATP concentration: 500 uM
How it was run: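 Imaging in selection buffer was followed by imaging after 15 min with 500 uM ATP at 22 °C, for Cy3-labelled switching-strand clusters annealed to 100 nM quencher-labelled ATP aptamer on a modified Illumina MiSeq flow-cell. Five of these buffer/ATP cycles ran, separated by NaOH stripping and re-annealing. The fluorescence ratio per cluster is summed target-cycle over summed buffer-cycle Cy3 intensity, averaged per switch-domain sequence; clusters outside 100-1000 RFU were removed.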
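Further: ATP exposure 15 min at 22 °C before imaging.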

Sequence | switch fluorescence ratio
GTTGCACTTT | 0.983 ± 0.052
GTTGCATGGG | 0.963 ± 0.012
GTTGCCGGTT | 1.026 ± 0.008
GTTGCCTTGC | 1.06 ± 0.011
GTTGCGGAAT | 1.03 ± 0.023
GTTGCGGGTT | 1.01 ± 0.039
GTTGCGTTTT | 0.9852 ± 0.0095
GTTGCTAGGT | 0.9984 ± 0.0044
GTTGGAATGA | 1 ± 0.037
GTTGGACGCT | 0.986 ± 0.029
GTTGGAGAGG | 0.974 ± 0.087
GTTGGAGATT | 0.961 ± 0.042
GTTGGAGGGT | 0.977 ± 0.047
GTTGGAGTGC | 0.9817 ± 0.0017
GTTGGCTTTG | 0.997 ± 0.048
GTTGGGACGA | 1 ± 0.015
GTTGGGAGGA | 0.989 ± 0.018
GTTGGGAGTC | 1.01 ± 0.012
GTTGGGATGT | 0.996 ± 0.015
GTTGGGCACT | 0.992 ± 0.033
GTTGGGCCGG | 0.987 ± 0.021
GTTGGGGAGG | 1.01 ± 0.035
GTTGGGGATT | 0.977 ± 0.016
GTTGGGGCCG | 0.991 ± 0.0068
GTTGGGGCTT | 1.021 ± 0.002

Sequence | switch fluorescence ratio
GTTGGGGTGT | 1.01 ± 0.013
GTTGGGTTAT | 0.982 ± 0.017
GTTGGTAGCC | 0.978 ± 0.022
GTTGGTAGGG | 0.9979 ± 0.0099
GTTGGTAGGT | 0.997 ± 0.019
GTTGGTTAGC | 1.02 ± 0.035
GTTGGTTGTA | 0.987 ± 0.057
GTTGTAAAGG | 1.02 ± 0.026
GTTGTAGATG | 1.005 ± 0.0058
GTTGTAGCAC | 1.07 ± 0.029
GTTGTAGTCC | 1.02 ± 0.022
GTTGTCAGGT | 1.001 ± 0.0018
GTTGTCTTTG | 1.01 ± 0.031
GTTGTGAATA | 0.994 ± 0.028
GTTGTGGGAA | 0.98266 ± 0.00039
GTTGTGGGTG | 1.03 ± 0.018
GTTGTGGTTT | 0.975 ± 0.034
GTTGTGTCTT | 0.991 ± 0.041
GTTGTGTTAA | 0.997 ± 0.014
GTTGTTGCAA | 1.13 ± 0.21
GTTGTTGTCG | 0.974 ± 0.1
GTTGTTTTAG | 0.992 ± 0.019
GTTTAAAGAC | 0.981 ± 0.02
GTTTAACGGG | 1.03 ± 0.051
GTTTAAGTTA | 0.991 ± 0.025

Sequence | switch fluorescence ratio
GTTTAATCTT | 0.9896 ± 0.0031
GTTTAATGGA | 1.01 ± 0.021
GTTTAATTGG | 1 ± 0.024
GTTTACCTTC | 1.04 ± 0.062
GTTTAGAAAG | 1.01 ± 0.017
GTTTAGAGGA | 1 ± 0.025
GTTTAGAGGT | 0.9925 ± 0.0082
GTTTAGAGTG | 0.944 ± 0.033
GTTTAGGGGA | 0.999 ± 0.015
GTTTAGGGTT | 1.02 ± 0.018
GTTTAGTATT | 0.999 ± 0.019
GTTTATCGGG | 0.964 ± 0.0099
GTTTATGGTG | 0.999 ± 0.025
GTTTATTTCG | 0.987 ± 0.059
GTTTCAGGGA | 1.01 ± 0.013
GTTTCAGGTA | 1.02 ± 0.029
GTTTCATGGG | 0.9685 ± 0.0041
GTTTCCGATT | 0.991 ± 0.019
GTTTCGAGGG | 0.974 ± 0.037
GTTTCGGGGT | 1.004 ± 0.0055
GTTTCGTTGT | 0.9798 ± 0.0019
GTTTCTCATC | 1.02 ± 0.011
GTTTCTTAGA | 0.978 ± 0.036
GTTTCTTTTA | 0.99 ± 0.02
GTTTGAATTG | 0.9879 ± 0.0049

Sequence | switch fluorescence ratio
GTTTGAGGGT | 0.9939 ± 0.0087
GTTTGAGTCT | 1.01 ± 0.028
GTTTGATCGG | 0.97 ± 0.013
GTTTGCACTG | 1.04 ± 0.021
GTTTGCCTGT | 0.9845 ± 0.0094
GTTTGCTTTT | 1 ± 0.046
GTTTGGATCG | 1 ± 0.015
GTTTGGGATT | 1 ± 0.024
GTTTGGGCGG | 0.978 ± 0.057
GTTTGGGGTT | 0.979 ± 0.031
GTTTGGGTTT | 0.992 ± 0.031
GTTTGGTCGG | 1.04 ± 0.035
GTTTGTAAGT | 1.01 ± 0.045
GTTTGTAGGG | 0.988 ± 0.037
GTTTGTATGG | 1.01 ± 0.018
GTTTGTCAGC | 1.01 ± 0.024
GTTTGTCCGA | 1.01 ± 0.012
GTTTGTGC | 0.998 ± 0.059
GTTTGTGTCC | 0.965 ± 0.079
GTTTGTTTAG | 1.011 ± 0.006
GTTTGTTTGT | 0.995 ± 0.019
GTTTTACACG | 0.954 ± 0.031
GTTTTAGAGT | 0.989 ± 0.02
GTTTTATATG | 0.978 ± 0.011
GTTTTATTAG | 0.951 ± 0.032

Sequence | switch fluorescence ratio
GTTTTCACTC | 1.0086 ± 0.00085
GTTTTCCCTT | 0.982 ± 0.016
GTTTTCTATA | 0.975 ± 0.039
GTTTTGCCTG | 0.998 ± 0.0045
GTTTTGGAGC | 1.03 ± 0.067
GTTTTGGGAA | 1.02 ± 0.026
GTTTTGGTAG | 1.001 ± 0.0067
GTTTTGTATT | 1 ± 0.029
GTTTTGTTGT | 0.99 ± 0.027
GTTTTTAATT | 0.95322 ± 0.0005
GTTTTTACCT | 1.21 ± 0.19
GTTTTTAGGG | 1.02 ± 0.021
GTTTTTATGT | 0.973 ± 0.014
GTTTTTCAGG | 1 ± 0.017
GTTTTTGAGT | 1.016 ± 0.0031
GTTTTTGCTG | 0.976 ± 0.024
GTTTTTGGCG | 0.94 ± 0.16
GTTTTTTGCG | 0.999 ± 0.036
GTTTTTTGGA | 1.01 ± 0.018
GTTTTTTGGC | 0.97 ± 0.058
GTTTTTTTGT | 0.966 ± 0.001
GTTTTTTTTC | 0.985 ± 0.011
TAAAAAAAAG | 1.01 ± 0.039
TAAAAAAATA | 0.971 ± 0.0079
TAAAAAATAT | 0.967 ± 0.043

Sequence | switch fluorescence ratio
TAAAAAATTT | 1.02 ± 0.035
TAAAAATATA | 1 ± 0.034
TAAAACTAAA | 0.9977 ± 0.0012
TAAAAGGAAA | 0.9773 ± 0.0045
TAAAAGGCAA | 1.14 ± 0.085
TAAAAGGGGA | 0.982 ± 0.029
TAAAAGTCCG | 1.06 ± 0.022
TAAAAGTGAG | 1 ± 0.022
TAAAAGTGTT | 1.07 ± 0.059
TAAAAGTTGG | 0.985 ± 0.029
TAAAATAGTT | 0.972 ± 0.026
TAAAATCCGT | 0.981 ± 0.011
TAAAATCGGG | 0.958 ± 0.023
TAAAATGAGG | 0.987 ± 0.043
TAAAATGCCG | 1.01 ± 0.061
TAAAATTGAA | 0.9905 ± 0.0041
TAAAATTGGG | 0.989 ± 0.014
TAAACAATTA | 0.9734 ± 0.0095
TAAACCCACT | 1.24 ± 0.063
TAAACGGGAC | 1.11 ± 0.019
TAAACTCCTT | 1.05 ± 0.035
TAAACTGACG | 1.03 ± 0.051
TAAACTGCGG | 1.03 ± 0.02
TAAACTGGGA | 1.004 ± 0.0093
TAAAGAACGT | 0.942 ± 0.015

Sequence | switch fluorescence ratio
TAAAGATAGC | 1.02 ± 0.064
TAAAGATGAG | 1.0091 ± 0.00022
TAAAGCGGTG | 0.992 ± 0.027
TAAAGCTTTT | 1.09 ± 0.16
TAAAGGCGAG | 1.02 ± 0.027
TAAAGGCTTG | 0.976 ± 0.034
TAAAGGGCAC | 1.011 ± 0.0093
TAAAGGTATG | 1.02 ± 0.013
TAAAGGTTGG | 0.962 ± 0.025
TAAAGTAGTC | 1.05 ± 0.044
TAAAGTATTT | 1.04 ± 0.073
TAAAGTTAGA | 0.989 ± 0.012
TAAAGTTAGC | 0.995 ± 0.028
TAAAGTTCAG | 0.9685 ± 0.0073
TAAAGTTTTT | 1.002 ± 0.0088
TAAATAGGGC | 1.02 ± 0.045
TAAATATTT | 0.996 ± 0.025
TAAATCACGG | 1.02 ± 0.038
TAAATCCGGT | 0.997 ± 0.041
TAAATCCTA | 1.02 ± 0.022
TAAATCGTTG | 0.9906 ± 0.005
TAAATGGACG | 0.9669 ± 0.0095
TAAATGGGGA | 0.995 ± 0.025
TAAATTGGCG | 0.987 ± 0.037
TAAATTGGTT | 0.981 ± 0.0078

Sequence | switch fluorescence ratio
TAAATTTGAA | 0.976 ± 0.0034
TAAATTTGGG | 0.974 ± 0.017
TAAATTTTTT | 0.996 ± 0.032
TAACAACGTA | 1.066 ± 0.0064
TAACAGATTT | 0.958 ± 0.0034
TAACAGTAGG | 1.05 ± 0.038
TAACATCGGT | 0.996 ± 0.021
TAACATGTGG | 1.017 ± 0.01
TAACCCTGAA | 0.984 ± 0.015
TAACCGGATT | 1.1 ± 0.053
TAACGAAACT | 1.26 ± 0.28
TAACGAGTCT | 1.01 ± 0.029
TAACGCAGCT | 1.07 ± 0.073
TAACGGAGT | 1.01 ± 0.015
TAACGGCTGC | 1 ± 0.051
TAACGGGGCA | 0.9842 ± 0.003
TAACGGGTGG | 1.01 ± 0.037
TAACGTTTTG | 0.989 ± 0.025
TAACTATTTT | 1.01 ± 0.016
TAACTCACTA | 1.15 ± 0.017
TAACTGTTTT | 1.06 ± 0.056
TAACTTTTCG | 1.004 ± 0.0028
TAAGAAAATT | 0.993 ± 0.023
TAAGACAAAG | 0.992 ± 0.053
TAAGACGGTT | 1.01 ± 0.015
